Broadly, the Kd is the free concentration of one partner at which half of the binding sites on the other are occupied at equilibrium, for simple one-to-one binding.

In series [1] the target is T1, LARP6 NTD (Homo sapiens, UniProt Q9BRS8 2-300).
T1 sequence: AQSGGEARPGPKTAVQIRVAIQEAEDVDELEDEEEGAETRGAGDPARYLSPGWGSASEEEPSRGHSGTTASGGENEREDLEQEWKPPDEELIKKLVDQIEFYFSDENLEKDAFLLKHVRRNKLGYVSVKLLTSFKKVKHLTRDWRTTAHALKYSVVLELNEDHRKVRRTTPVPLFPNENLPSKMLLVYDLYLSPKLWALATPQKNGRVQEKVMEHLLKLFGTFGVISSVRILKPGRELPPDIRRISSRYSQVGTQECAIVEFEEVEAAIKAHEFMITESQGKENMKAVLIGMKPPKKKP
Kind of series: MST; BLI: 20 mM Tris-HCl pH 7.5, 100 mM KCl, 0.5 mM MgCl2, 1 mM TCEP, 0.05% Tween-20, 25 °C; MST, NMR and SAXS buffers not in the material. Particulars: protein: recombinant; tags: 6xHis-SUMO-TEV tag, cleaved; label: 5' 6-FAM; single strand.

Series [2] deals with T2, LARP6 NTR (Homo sapiens, UniProt Q9BRS8 2-83).
T2 sequence: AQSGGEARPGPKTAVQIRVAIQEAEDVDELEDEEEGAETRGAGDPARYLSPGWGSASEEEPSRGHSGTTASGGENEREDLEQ
The description is as above. Particulars: protein: recombinant; tags: 6xHis-SUMO-TEV tag, cleaved; label: 5' 6-FAM; single strand.

Series [3] concerns the target T3, LARP6 La-module (Homo sapiens, UniProt Q9BRS8 70-300).
T3 sequence: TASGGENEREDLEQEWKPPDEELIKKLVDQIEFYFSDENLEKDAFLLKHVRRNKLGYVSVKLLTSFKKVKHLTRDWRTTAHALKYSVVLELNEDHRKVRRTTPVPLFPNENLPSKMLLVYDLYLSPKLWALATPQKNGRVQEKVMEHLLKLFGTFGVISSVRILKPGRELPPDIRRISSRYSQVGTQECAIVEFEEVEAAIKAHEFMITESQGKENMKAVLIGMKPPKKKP
The series is described as above. Particulars: protein: recombinant; tags: His tag cleaved by TEV; label: 5' 6-FAM; single strand.

Series [4] has as its target T1, LARP6 NTD. Kind of series: BLI; 0.5 mM Mg2+; BLI: 20 mM Tris-HCl pH 7.5, 100 mM KCl, 0.5 mM MgCl2, 1 mM TCEP, 0.05% Tween-20, 25 °C; MST, NMR and SAXS buffers not in the material. The following applies: protein: recombinant; tags: 6xHis-SUMO-TEV tag, cleaved; label: 5' biotin; single strand. On the technique in general: Biolayer interferometry detects binding as a change in optical thickness at a sensor tip.

Series [5] addresses T2, LARP6 NTR. The series is described as above. The following applies: protein: recombinant; tags: 6xHis-SUMO-TEV tag, cleaved; label: 5' biotin; single strand.
For series [6], the target named is T3, LARP6 La-module. Described as above. Particulars: protein: recombinant; tags: His tag cleaved by TEV; label: 5' biotin; single strand.
The target in series [7] is T1, LARP6 NTD. Kind of series: BLI; Mg; 20 mM Tris-HCl pH 7.5, 100 mM KCl, 0.5 mM MgCl2, 1 mM TCEP, 0.05% Tween-20, 25 C; steady state, 1:1 fit. Particulars: label: 5' biotin.
Series [8] deals with T3, LARP6 La-module. The series is described as above. The following applies: label: 5' biotin.

In the case of CUAAAUACAACACUGAUACUAGAUU (ssRNA) [CTNNA1 P1 (5' 6-FAM)], the Kd worked out at 99 nM with LARP6 NTD [1], 8.3 µM with LARP6 NTR [2] and 5.8 nM with LARP6 La-module [3].
As to CUAAAUACAACACUGAUACUAGAUU (ssRNA) [CTNNA1 P1 (5' biotin)], the Kd in the series with LARP6 NTD [4] was 61 ± 5 nM; with LARP6 NTR [5] it was 1200 ± 500 nM; in the series with LARP6 La-module [6], 1.5 ± 0.4 nM.
GGAAAUGGGCAGACUGAACCAGUCC (ssRNA) [CTNNA1 P2]: the Kd came out at 0.91 ± 0.05 nM in the series with LARP6 La-module [6], 17 ± 1.2 nM with LARP6 NTD [7] and 0.9 ± 0.05 nM with LARP6 La-module [8].
Turning to GUUUAAGUUGAUUAAAAAUGCUUUU (ssRNA) [CTNNA1 D2], the dissociation constant (Kd) with LARP6 NTD [4] came to 367 ± 57 nM; with LARP6 NTD [7], 360 ± 57 nM; in the series with LARP6 La-module [8], 6.9 ± 0.6 nM.
Turning to AGGUGGUGAAUUUUCCAAGAACAUA (ssRNA) [CTNNA1 D1], the values for the Kd in the series with LARP6 NTD [4], with LARP6 NTD [7] and with LARP6 La-module [8] were 85 ± 4 nM, 87 ± 4 nM and 2 ± 0.1 nM, respectively.
Take ACUGUUCGUCACUCAAAUGAAUUUG (ssRNA) [CTNNA1 U1]: the Kd with LARP6 NTD [4] turned out to be 587 ± 29 nM; with LARP6 La-module [8], 14 ± 0.8 nM.
Regarding CCCUCGGGGCUCCUGAAUAUCAGUC (ssRNA) [CTNNA1 U2], the Kd with LARP6 NTD [4] was determined as 183 ± 5 nM; with LARP6 La-module [6] it was 4.4 ± 0.1 nM; in the series with LARP6 NTD [7], 180 ± 5 nM; with LARP6 La-module [8] it was 4.3 ± 0.1 nM.
As for CUAAAUACAACACUGAUACUAGAUU (ssRNA) [CTNNA1 P1], the dissociation constant Kd in the series with LARP6 NTD [7] turned out to be 58 ± 5 nM; in the series with LARP6 La-module [8], 1.3 ± 0.4 nM.

Source of the values: article PMC13031558, “An intrinsically disordered region mediates RNA-binding selectivity and cellular activities of LARP6”.
